Test results from publication PMC7956748 (2021).

B1: thrombospondin-4 (TSP-4), recombinant full-length rat (natural protein)
chain: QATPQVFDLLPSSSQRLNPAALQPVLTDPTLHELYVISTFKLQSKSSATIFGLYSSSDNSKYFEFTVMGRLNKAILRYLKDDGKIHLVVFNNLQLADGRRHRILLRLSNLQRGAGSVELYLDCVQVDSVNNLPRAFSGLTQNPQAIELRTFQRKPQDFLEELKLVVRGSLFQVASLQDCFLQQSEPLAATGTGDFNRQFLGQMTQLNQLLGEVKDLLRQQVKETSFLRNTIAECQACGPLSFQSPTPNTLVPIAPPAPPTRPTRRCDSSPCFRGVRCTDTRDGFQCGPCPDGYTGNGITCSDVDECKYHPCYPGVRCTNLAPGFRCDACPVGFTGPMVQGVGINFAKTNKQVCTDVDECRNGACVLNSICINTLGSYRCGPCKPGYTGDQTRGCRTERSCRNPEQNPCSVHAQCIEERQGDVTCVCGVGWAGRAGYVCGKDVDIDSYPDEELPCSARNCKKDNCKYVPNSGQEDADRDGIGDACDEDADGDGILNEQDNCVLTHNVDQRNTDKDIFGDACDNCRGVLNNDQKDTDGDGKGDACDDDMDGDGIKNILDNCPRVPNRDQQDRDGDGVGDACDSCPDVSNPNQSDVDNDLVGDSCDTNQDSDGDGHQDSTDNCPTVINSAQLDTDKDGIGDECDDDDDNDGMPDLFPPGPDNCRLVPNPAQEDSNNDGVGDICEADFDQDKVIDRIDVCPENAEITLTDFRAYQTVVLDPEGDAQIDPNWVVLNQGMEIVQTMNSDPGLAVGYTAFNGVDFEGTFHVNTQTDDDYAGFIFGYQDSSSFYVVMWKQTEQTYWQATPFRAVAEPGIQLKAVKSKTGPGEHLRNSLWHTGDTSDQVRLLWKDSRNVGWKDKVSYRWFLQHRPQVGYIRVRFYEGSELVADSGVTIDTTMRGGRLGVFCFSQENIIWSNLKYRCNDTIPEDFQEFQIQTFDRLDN
B2: cartilage oligomeric matrix protein (COMP), recombinant full-length rat (natural protein)
chain: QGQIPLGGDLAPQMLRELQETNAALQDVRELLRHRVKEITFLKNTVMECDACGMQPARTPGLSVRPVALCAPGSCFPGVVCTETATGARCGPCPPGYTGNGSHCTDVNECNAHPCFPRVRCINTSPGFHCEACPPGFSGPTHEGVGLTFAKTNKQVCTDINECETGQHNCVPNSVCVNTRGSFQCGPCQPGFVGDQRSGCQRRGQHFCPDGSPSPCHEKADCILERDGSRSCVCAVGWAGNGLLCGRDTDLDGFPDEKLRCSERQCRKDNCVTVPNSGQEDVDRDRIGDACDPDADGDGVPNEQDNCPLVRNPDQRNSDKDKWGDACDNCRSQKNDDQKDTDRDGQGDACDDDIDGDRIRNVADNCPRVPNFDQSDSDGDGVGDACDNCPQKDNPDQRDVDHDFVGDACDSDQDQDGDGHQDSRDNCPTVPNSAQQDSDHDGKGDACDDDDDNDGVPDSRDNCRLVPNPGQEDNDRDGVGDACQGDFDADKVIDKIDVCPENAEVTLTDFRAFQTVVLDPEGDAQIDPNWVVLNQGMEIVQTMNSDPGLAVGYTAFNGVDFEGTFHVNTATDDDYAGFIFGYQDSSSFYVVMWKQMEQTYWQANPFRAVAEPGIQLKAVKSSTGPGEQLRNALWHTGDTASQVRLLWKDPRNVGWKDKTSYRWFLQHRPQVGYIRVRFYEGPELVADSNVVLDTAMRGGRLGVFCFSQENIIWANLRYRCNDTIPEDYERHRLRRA

Legend:
[1] = target: T1, transforming growth factor-beta 1 (TGF-β1) (UniProt P01137 279-390); test: SPR
[2] = target: T1, transforming growth factor-beta 1 …; test: SPR; remark: listed apart in the source

T1 sequence (P01137 279-390): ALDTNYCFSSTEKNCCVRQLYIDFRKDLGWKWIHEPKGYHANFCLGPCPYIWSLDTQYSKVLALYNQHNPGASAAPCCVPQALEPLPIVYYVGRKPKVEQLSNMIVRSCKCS

| Binder | Kd [1] | koff [2] |
| --- | --- | --- |
| B1 | 6.3 nM | 0.000889 s⁻¹ |
| B2 | 22.9 nM | 0.000392 s⁻¹ |
